Experimental findings from PMC12417749 are described below.

Where two headings read alike, the source gives them in different places.

Common to all, as to experiment: SPR
(SPR reads the build-up and loss of mass on a sensor chip optically.)

The target of experiment [1] is galactosylated Trastuzumab (TZM‐GT).
For experiment [2], the target named is afucosylated Trastuzumab (TZM‐AF).
For experiment [3], the target named is galactosylated Trastuzumab (TZM‐GT). This is another data set of the same source.
The target in experiment [4] is afucosylated Trastuzumab (TZM‐AF). The source holds these as a separate data set.

In the case of “FcγRIIA (from UniProt P12318) (receptor)”, the dissociation constant (Kd) (usually a measure of binding affinity in units of concentration) came out at 170 nM in experiment [1], 200 nM in experiment [2], 180 nM in experiment [3] and 250 nM in experiment [4]. Besides, the SPR signal at 300 nM receptor in experiment [3] and in experiment [4] was 40 RU each time.
For the substance “FcγRIIB (from UniProt P31994) (receptor)”, the dissociation constant Kd was determined as 220 nM in experiment [1], 170 nM in experiment [2], 260 nM in experiment [3] and 180 nM in experiment [4]. Besides, the SPR signal at 300 nM receptor in experiment [3] and in experiment [4] was 40 RU in each case.
